{"source": "paper PMC8637920", "about": "“Structure, Function and Regulation of a Second Pyruvate Kinase Isozyme in Pseudomonas aeruginosa” (Frontiers in Microbiology, 2021)", "key": {"PykFPA": {"target": "T1, PykFPA (Pseudomonas aeruginosa, UniProt Q9I3L4)", "T1 construct": "gene pykF; full-length, 477 residues, untagged, from pET-19m in E. coli BL21(DE3)", "T1 sequence (Q9I3L4 1-477)": "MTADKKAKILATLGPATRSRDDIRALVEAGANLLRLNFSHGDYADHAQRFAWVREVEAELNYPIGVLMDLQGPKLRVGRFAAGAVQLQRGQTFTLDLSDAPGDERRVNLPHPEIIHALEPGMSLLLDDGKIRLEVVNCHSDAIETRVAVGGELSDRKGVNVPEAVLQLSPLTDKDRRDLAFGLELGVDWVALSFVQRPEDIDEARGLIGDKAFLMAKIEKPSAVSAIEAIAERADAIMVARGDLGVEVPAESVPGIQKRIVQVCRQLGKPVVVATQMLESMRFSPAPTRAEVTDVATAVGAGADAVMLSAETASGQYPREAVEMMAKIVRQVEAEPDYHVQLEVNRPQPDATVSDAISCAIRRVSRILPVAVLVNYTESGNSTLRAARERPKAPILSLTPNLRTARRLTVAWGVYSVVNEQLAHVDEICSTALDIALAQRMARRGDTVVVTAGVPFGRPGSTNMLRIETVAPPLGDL", "test": "lactate dehydrogenase-coupled assay, activation", "assay_type": "biochemical", "details": "K-type activator (shifts S0.5 of PEP), 2 mM ADP, allosteric"}, "[1]": {"substrate": "C=C(OP(=O)(O)O)C(=O)O", "test": "lactate dehydrogenase-coupled assay", "assay_type": "biochemical, Pseudomonas aeruginosa", "details": "2 mM ADP; Mg2+; no regulator added; sigmoidal"}, "[2]": {"substrate": "Nc1ncnc2c1ncn2[C@@H]1O[C@H](COP(=O)(O)OP(=O)(O)O)[C@@H](O)[C@H]1O", "test": "lactate dehydrogenase-coupled assay", "assay_type": "biochemical, Pseudomonas aeruginosa", "details": "5 mM PEP; Mg2+; no regulator added; hyperbolic"}, "[3]": {"target": "the molecule itself", "test": "AUC; purified PykFPA in solution; carried out as previously described (Abdelhamid et al., 2019); analysed with SEDFIT and SEDNTERP"}}}
{"molecule": "O=C(CO)[C@@H](O)[C@H](O)COP(=O)(O)O", "note": "[xylulose 5-phosphate]", "values": [{"measurement": "lactate dehydrogenase-coupled assay, activation", "setting": "PykFPA; 0.5 mM", "result": "strongly activated by metabolites from the non-oxidative PPP [(xylulose 5-phosphate (X5P)"}]}
{"molecule": "O=C(CO)[C@H](O)[C@H](O)COP(=O)(O)O", "note": "[ribulose 5-phosphate]", "values": [{"measurement": "lactate dehydrogenase-coupled assay, activation", "setting": "PykFPA; 0.5 mM", "result": "ribulose 5-phosphate (RL5P), and R5P]"}]}
{"molecule": "Nc1ncnc2c1ncn2[C@@H]1O[C@H](COP(=O)(O)O)[C@@H](O)[C@H]1O", "note": "[adenosine 5′-monophosphate]", "values": [{"measurement": "lactate dehydrogenase-coupled assay, activation", "setting": "PykFPA; 1 mM", "result": "PykFPA (but not PykAPA) was activated by AMP"}]}
{"molecule": "O=P(O)(O)OC[C@H]1OC(O)[C@H](O)[C@@H](O)[C@@H]1O", "note": "(stereo partly shown) [glucose 6-phosphate]", "values": [{"measurement": "lactate dehydrogenase-coupled assay, activation", "setting": "PykFPA; 1 mM", "result": "to a lesser extent, by the EDP intermediates G6P and G3P"}]}
{"molecule": "O=C[C@H](O)COP(=O)(O)O", "note": "[glyceraldehyde 3-phosphate]", "values": [{"measurement": "lactate dehydrogenase-coupled assay, activation", "setting": "PykFPA; 1 mM", "result": "to a lesser extent, by the EDP intermediates G6P and G3P"}]}
{"molecule": "O=P(O)(O)OC[C@H]1OC(O)[C@H](O)[C@@H]1O", "note": "(stereo partly shown) [ribose 5-phosphate]", "values": [{"measurement": "lactate dehydrogenase-coupled assay, activation", "setting": "PykFPA; 0.15 mM", "result": "ribulose 5-phosphate (RL5P), and R5P]"}]}
{"molecule": "Pseudomonas aeruginosa pyruvate kinase isozyme PykF (PykFPA) (enzyme, UniProt Q9I3L4 1-477, looked up, Pyruvate kinase PykF of Pseudomonas aeruginosa (PA1498), untagged full-length protein, 477 residues, monomer 51.5 kDa; also called PA1498; source: E. coli BL21 (DE3) with plasmid pET-19m (pykF), purified) MTADKKAKILATLGPATRSRDDIRALVEAGANLLRLNFSHGDYADHAQRFAWVREVEAELNYPIGVLMDLQGPKLRVGRFAAGAVQLQRGQTFTLDLSDAPGDERRVNLPHPEIIHALEPGMSLLLDDGKIRLEVVNCHSDAIETRVAVGGELSDRKGVNVPEAVLQLSPLTDKDRRDLAFGLELGVDWVALSFVQRPEDIDEARGLIGDKAFLMAKIEKPSAVSAIEAIAERADAIMVARGDLGVEVPAESVPGIQKRIVQVCRQLGKPVVVATQMLESMRFSPAPTRAEVTDVATAVGAGADAVMLSAETASGQYPREAVEMMAKIVRQVEAEPDYHVQLEVNRPQPDATVSDAISCAIRRVSRILPVAVLVNYTESGNSTLRAARERPKAPILSLTPNLRTARRLTVAWGVYSVVNEQLAHVDEICSTALDIALAQRMARRGDTVVVTAGVPFGRPGSTNMLRIETVAPPLGDL", "values": [{"measurement": "K0.5", "setting": "[1]", "result": "1.03 ± 0.01", "unit": "mM"}, {"measurement": "kcat", "setting": "[1]", "result": 379, "unit": "s⁻¹"}, {"measurement": "kcat/Km", "setting": "[1]", "result": 367000, "unit": "M⁻¹ s⁻¹"}, {"measurement": "K0.5", "setting": "[2]", "result": "0.11 ± 0.01", "unit": "mM"}, {"measurement": "kcat", "setting": "[2]", "result": 433, "unit": "s⁻¹"}, {"measurement": "kcat/Km", "setting": "[2]", "result": "3.94e+06", "unit": "M⁻¹ s⁻¹"}, {"measurement": "stoichiometry N", "setting": "[3]", "result": 4}]}
